For this experiment, the target named is human HP1 CSDα (109–185) (human, UniProt P45973 109-185). The experiment is described as follows: other fluorescence titration.
Chain of human HP1 CSDα (109–185) (P45973 109-185): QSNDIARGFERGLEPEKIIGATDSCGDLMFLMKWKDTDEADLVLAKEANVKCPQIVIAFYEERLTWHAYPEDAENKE

As for SKAGDLLFIEKVPVVVLEDILATKPSIAS (peptide, UniProt Q9QWF0 210-238, looked up) [CAF1 p150(210–238)], the Kd was 430 ± 100 nM.

For orientation: Kd means the concentration at which binding is half-saturated.

Source of the values: publication PMC3365711 (The Journal of Biological Chemistry, 2012).
